Experimental data from publication PMC2853120.

Tests used:
[1] = biological target: T1, tyrosyl-DNA phosphodiesterase 1 (Tdp1) (Homo sapiens, UniProt Q9NUW8 1-608); experiment: fluorescence anisotropy
[2] = biological target: T1, tyrosyl-DNA phosphodiesterase 1 (Tdp1); experiment: competition
[3] = biological target: T1, tyrosyl-DNA phosphodiesterase 1 (Tdp1); experiment: SPR
[4] = biological target: T1, tyrosyl-DNA phosphodiesterase 1 (Tdp1); experiment: fluorescence anisotropy; remark: listed apart in the source
[5] = biological target: T1, tyrosyl-DNA phosphodiesterase 1 (Tdp1); experiment: SPR; remark: listed apart in the source

T1 sequence (Q9NUW8 whole entry): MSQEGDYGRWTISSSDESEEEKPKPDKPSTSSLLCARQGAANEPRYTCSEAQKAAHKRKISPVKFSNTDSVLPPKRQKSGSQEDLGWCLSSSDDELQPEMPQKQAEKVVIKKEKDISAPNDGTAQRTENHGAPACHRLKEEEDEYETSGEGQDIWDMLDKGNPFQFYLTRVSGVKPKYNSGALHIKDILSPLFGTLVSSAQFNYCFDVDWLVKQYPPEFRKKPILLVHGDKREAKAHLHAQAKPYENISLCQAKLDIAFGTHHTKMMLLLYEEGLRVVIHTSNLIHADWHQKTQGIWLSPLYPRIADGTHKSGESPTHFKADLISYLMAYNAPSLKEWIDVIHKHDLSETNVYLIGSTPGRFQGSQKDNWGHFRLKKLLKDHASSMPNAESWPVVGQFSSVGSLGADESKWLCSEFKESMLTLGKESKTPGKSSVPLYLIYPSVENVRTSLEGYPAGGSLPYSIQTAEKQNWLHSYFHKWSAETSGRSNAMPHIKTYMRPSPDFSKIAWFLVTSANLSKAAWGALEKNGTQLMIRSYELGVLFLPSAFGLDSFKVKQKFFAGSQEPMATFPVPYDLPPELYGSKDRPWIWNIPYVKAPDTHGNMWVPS

Binder | Kd [1] [nM] | also measured
GATCTAAAAGACTTG (ssDNA, 5'-6-FAM via phosphorothioate; 3'-OH) [F(pS)15] | 26.3 | –
GATCTAAAAGACTT (ssDNA, 5'-6-FAM via phosphodiester; 3'-phosphate) [F14p] | 34.1 | –
AAGATCTAAAAGACTTAAGGATCTAAAAGACTTGAAGATCTAAAAGACTT (ssDNA, 3'-phosphate) [50p] | – | binding signal [2]: ~10 fold higher affinity than 14p
GATCTAAAAGACTTG (ssDNA, 3'-6-FAM via phosphorothioate (non-hydrolyzable)) [15(pS)F] | 2.4 | –
GATCTAAAAGACTT (ssDNA, 5'-phosphate; 3'-biotin) [p14B] | – | binding result [3]: no binding
GATCTAAAAGACTT (ssDNA, 5'-6-FAM via phosphodiester; 3'-OH) [F14] | – | Kd [4]: 76.9 nM
GATCTAAAAGACTTG (ssDNA, 5'-6-FAM via phosphodiester; 3'-OH) [F15] | 39.2 | –
GATCTAAAAGACTT (ssDNA, 5'-biotin; 3'-phosphate) [B14p] | – | Kd [5]: 57 nM
